Data reported in PMC10936626 (Autophagy, 2023).

Biological target: GST-tagged SRC, bacterially purified (human, UniProt P12931-1 1-536)
Experiment: pull-down

B1: Flag-tagged MEF2D protein purified from HEK293T cells (natural protein, human, UniProt Q14814-1 1-521, looked up)
chain: MGRKKIQIQRITDERNRQVTFTKRKFGLMKKAYELSVLCDCEIALIIFNHSNKLFQYASTDMDKVLLKYTEYNEPHESRTNADIIETLRKKGFNGCDSPEPDGEDSLEQSPLLEDKYRRASEELDGLFRRYGSTVPAPNFAMPVTVPVSNQSSLQFSNPSGSLVTPSLVTSSLTDPRLLSPQQPALQRNSVSPGLPQRPASAGAMLGGDLNSANGACPSPVGNGYVSARASPGLLPVANGNSLNKVIPAKSPPPPTHSTQLGAPSRKPDLRVITSQAGKGLMHHLTEDHLDLNNAQRLGVSQSTHSLTTPVVSVATPSLLSQGLPFSSMPTAYNTDYQLTSAELSSLPAFSSPGGLSLGNVTAWQQPQQPQQPQQPQPPQQQPPQPQQPQPQQPQQPQQPPQQQSHLVPVSLSNLIPGSPLPHVGAALTVTTHPHISIKSEPVSPSRERSPAPPPPAVFPAARPEPGDGLSSPAGGSYETGDRDDGRGDFGPTLGLLRPAPEPEAEGSAVKRMRLDTWTLK
binding result: binds
